Test [1] concerns the target T1, Human SARS-CoV-2_Wuhan S (SmT1) (SARS-CoV-2 (Wuhan), UniProt P0DTC2 14-1208). In words: flow cytometry SVNA, VHH-Fc vs biotin-S binding to Vero E6 ACE2.
For test [2], the target named is T2, SARS-CoV-2 S1 (aa16-685) (Wuhan) (SARS-CoV-2 (Wuhan), UniProt P0DTC2 16-685). Kind of test: sandwich ELISA: biotin NRCoV2-02 VHH capture, antigen titrated, VHH-Fc detector. In general terms: ELISA stands for enzyme-linked immunosorbent assay.
In test [3] the target is T3, SARS-CoV-2 S1-RBD (Wuhan) (SARS-CoV-2 (Wuhan), UniProt P0DTC2 319-541).
T3 construct: domain: S1-RBD
Described as above.

The target of test [4] is T1, Human SARS-CoV-2_Wuhan S (SmT1). The test is described as above.
The target of test [5] is T4, SARS-CoV-2 spike protein S on live virus, Wuhan (strain SARS-CoV-2/Canada/VIDO-01/2020) (SARS-CoV-2 (Wuhan), UniProt P0DTC2 14-1273). Kind of test: cell-based or functional assay.
The target of test [6] is T2, SARS-CoV-2 S1 (aa16-685) (Wuhan). Kind of test: sandwich ELISA: biotin NRCoV2-02 VHH capture, antigen titrated, VHH-Fc detector. This is another data set of the same source.
The target in test [7] is T3, SARS-CoV-2 S1-RBD (Wuhan). Described as above. This is another data set of the same source.
For test [8], the target named is T1, Human SARS-CoV-2_Wuhan S (SmT1). The test is described as above. This is another data set of the same source.
The target of test [9] is T5, SARS-CoV-2 spike trimer S (Wuhan, SmT1) (SARS-CoV-2 Wuhan).
T5 construct: extracellular domain
In words: SPR, antigen on chip. (SPR reads the build-up and loss of mass on a sensor chip optically.)

Test [10] deals with T6, SARS-CoV-2 S1-RBD fused to human Fc (S1-RBD-Fc) (SARS-CoV-2 Wuhan; human). In words: SPR, antigen on chip.
Test [11] has as its target T7, SARS-CoV-2 S1 (aa16-685) (Wuhan) (SARS-CoV-2 Wuhan, UniProt P0DTC2 16-685).
T7 construct: NRC; FLAG, 6xHis tags
Kind of test: SPR, antigen on chip.

Test [12] deals with T5, SARS-CoV-2 spike trimer S (Wuhan, SmT1). In words: flow cytometry, inhibition of S binding to ACE2 on Vero E6 cells, monomeric VHH. A general note: In flow cytometry, cells or beads pass a laser one at a time.
Test [13] has as its target T8, SARS-CoV-2 S2 (aa686-1208) (Wuhan) (SARS-CoV-2 Wuhan, UniProt P0DTC2 686-1208).
T8 construct: NRC; FLAG, 6xHis tags
In words: SPR, antigen on chip.

For test [14], the target named is T8, SARS-CoV-2 S2 (aa686-1208) (Wuhan). Kind of test: SPR single-cycle kinetics, VHH over immobilized S2 [cont.].
Test [15] has as its target Human SARS-CoV-2_Wuhan S (SmT1) (SARS-CoV-2 (Wuhan), UniProt P0DTC2 14-1208). In words: tandem SPR, immobilized S, orientation 1: VHH alone.
Test [16] has as its target T4, SARS-CoV-2 spike protein S on live …. Kind of test: cell-based or functional assay. This is another data set of the same source.
Test [17] deals with SARS-CoV-2 RBD (aa319-541) (Wuhan), monomeric (SARS-CoV-2 Wuhan, UniProt P0DTC2 319-541). In words: SPR, monomeric RBD over captured VHH-Fc.
In test [18] the target is T5, SARS-CoV-2 spike trimer S (Wuhan, SmT1). In words: SPR, antigen on chip. The source holds these as a separate data set.
In test [19] the target is T8, SARS-CoV-2 S2 (aa686-1208) (Wuhan). In words: SPR, antigen on chip. This is another data set of the same source.
The target in test [20] is T6, SARS-CoV-2 S1-RBD fused to human Fc …. Kind of test: SPR, antigen on chip. The source holds these as a separate data set.
The target in test [21] is T7, SARS-CoV-2 S1 (aa16-685) (Wuhan). Kind of test: SPR, antigen on chip. The source holds these as a separate data set.

What is called IC50 is the concentration at which inhibition is half-maximal. A low value points to greater potency. A word on the IC99: it is the concentration needed for an effect of 99%. A high value points to a need for much substance. As usually defined, the Kd is the free concentration of one partner at which half of the binding sites on the other are occupied at equilibrium, for simple one-to-one binding. One may read the koff as the rate constant with which the complex falls apart. Read a high koff as fast dissociation. What is called kon is the rate constant with which the complex forms.

Read-outs that look alike come from different tables or passages of the source.

B1: NRCoV2-11 VHH-Fc (Fc fusion)
chain: EVQLVSSGGGLVQPGGSLRLSCAASGSSLDSYSVSWFRQAPGKEREWISFISRYYSSTYYTDSVKGRFTTSRDGDQKTVHLQMNSLKPEDTAVYYCAARSRDFSSPFSATDTYTSWGQGTQVTVSS
notes: bivalent VHH-Fc
For the molecule B1, in test [1], the IC50 stood at 9.7 nM. Besides, the IC99 in test [1] came to 99.8 nM. In test [1], this molecule showed an Imax % of 63%. Also, the Limit of detection stood at 0.46 ng/mL in [2], 0.08 ng/mL in test [3] and 1.4 ng/mL in test [4]. In addition, the “LVNA IC50” value in test [5] is 9.9 nM. Moreover, the SC50 in [6] turned out to be 6 ng/mL; in test [7], 0.8 ng/mL; in [8], 20 ng/mL.

B2: NRCoV2-11 VHH (VHH)
VHH: B1 chain
In test [9], B2 registered a Kd of 0.0391 nM, a koff of 4.73e-05 s⁻¹ and a kon of 1.21e+06 M⁻¹ s⁻¹. Besides, in [10], the Kd was found to be 0.253 nM, the off-rate constant (koff) turned out to be 0.000226 s⁻¹ and the kon was found to be 892000 M⁻¹ s⁻¹. In test [11], this molecule displayed a dissociation constant (Kd) of 0.167 nM, a koff of 0.00018 s⁻¹ and a kon of 1.08e+06 M⁻¹ s⁻¹. For the same molecule, the IC50 in test [12] was found to be 16.8 nM.

B3: NRCoV2-17 VHH (VHH)
VHH: EVQLQQSGGGLVQTGGSLRLSCAAAGSPFSQLAMSWYRQISGKERAWVASISPTGNRSYSKIAKGRFTISRDNAKNTVTLQMTSLKPEDTAAYICQAANVNGGDYWGQGTQVTVSS
As for B3, in test [9], binding was characterised by a dissociation constant (Kd) of 0.149 nM, the koff amounted to 9.79e-05 s⁻¹ and the kon came to 659000 M⁻¹ s⁻¹. In addition, in test [13], the binding result is reported as “no binding”. In test [10], this molecule yielded a Kd of 0.395 nM, a koff of 0.000224 s⁻¹ and a kon of 567000 M⁻¹ s⁻¹. In test [11], this molecule gave a Kd of 0.153 nM, a koff of 9.66e-05 s⁻¹ and a kon of 629000 M⁻¹ s⁻¹. The molecule further had an IC50 in test [12] of 9.4 nM.

B4: NRCoV2-02 VHH (VHH)
VHH: EVQLVESGGGLVQAGGSLRLSCAASGFTFSNYAMNWVRQAPGKGLEWVSGISGRGDDTRYADSVKGRFTISRDNAKNTLFLQMRSLRPEDTGVYRCTKGPDLYYFGSGYSDRGQGTQVTVSS
Regarding B4, the binding result in test [14] is listed as “no binding (tested: 10 nM)”. Besides, the “End 1st inj (RU)” value in test [15] worked out at 33 RU.

B5: NRCoV2-SR03 VHH (VHH)
VHH: AVQLVDSGGGLVQAGGSLRLSCAASGSIFSNNHMGWYRQAPGKQRELVAAISSGGKTNYADFAKGRFTISRDNAKNMVYLQMNSLKPEDTAVYYCNRGGWEYRSSYYIMGPHWGQGTQVTVSS
Take B5: the binding result in test [14] is “no binding (tested: 20 nM)”. Moreover, the “End 1st inj (RU)” value in [15] is 18.5 RU.

B6: NRCoV2-07 VHH-Fc (Fc fusion)
chain: QVQLVQSGGGLVQPGGSLRLSCAASGVTLDYYAIGWFRQAPGKEREAVSCISSNGRRNHYVASVRGRFTISRDNAKSTVYLQMNSLKPEDTAVYYCAAVQDVHGDNYYCTSPNEYNVWGQGTQVTVSS
notes: bivalent VHH-Fc
B6 registered an IC50 in test [1] of 6.8 nM. In test [1], this molecule returned an IC99 of 98.9 nM. Moreover, the Imax % in test [1] was 89%. Besides, the figures for the Limit of detection in test [2], in test [3] and in [4] were 0.46 ng/mL, 0.08 ng/mL and 1.4 ng/mL, respectively. Further, the “LVNA IC50” value in [5] was 6.15 nM. For the same molecule, the values for the SC50 in test [6], in test [7] and in test [8] were 5 ng/mL, 0.7 ng/mL and 18 ng/mL, respectively. In test [16], this molecule showed an MN100 of 1.25 nM.

B7: NRCoV2-MRed05 VHH-Fc (Fc fusion)
chain: EVQLVESGGGLVQPGGSLRLSCAASGFTLDYYAIGWFRQAPGKEREGVSCISSSDGSTLYADSVKGRFTISRDNAKNTVYLQMNSLKPEDTAVYYCATGPQAYYSGSYYFQCPQAGMDYWGKGTQVTVSS
notes: bivalent
For B7, in [17], binding was put at a Kd of 0.763 nM, the koff was found to be 0.000496 s⁻¹ and the kon came to 650000 M⁻¹ s⁻¹.

B8: NRCoV2-1d VHH-Fc (Fc fusion)
chain: EVQLVESGGGSVQPGGSLRLSCAASGSTLDYYAIGWFRQAPGKEREWVSSVSSSDGNTLYADSVKGRFTISRDNAKNTVYLQMNSLKAEDTAVYVCAADYSMRPFAVGRWHRDYEYWGQGTQVTVSS
notes: bivalent VHH-Fc
B8 registered an IC50 in test [1] of 5.4 nM. This molecule also returned an IC99 in test [1] of 42 nM. The molecule also gave an Imax % in [1] of 89%. The Limit of detection in test [2] turned out to be 1.37 ng/mL; in test [3] it was 0.15 ng/mL; in [4], 1.4 ng/mL. Also, the “LVNA IC50” value in [5] is 1.94 nM. Moreover, the SC50 in test [6] was 16 ng/mL; in test [7] it was 1.7 ng/mL; in test [8] it was 25 ng/mL. In [16], this molecule displayed an MN100 of 0.25 nM.

B9: NRCoV2-MRed04 VHH (VHH)
VHH: EVQLVESGGGLVQPGRSLRLSCAASGNSFSISTMGWFRQAPGKERELVASIWSDTTTSYADSVKGRFTISTDNTRTKVYLQMSSLNPEDTAVYYCAADRGFVVRGQYDYWGQGTQVTVSS
On to B9, for which the Kd came out at 1.09 nM in test [18], 2.06 nM in [20] and 1.68 nM in [21]. Further, the koff in test [18] is 0.0015 s⁻¹; in [20] it was 0.00176 s⁻¹; in test [21], 0.00183 s⁻¹. Besides, the kon in [18] worked out at 1.39e+06 M⁻¹ s⁻¹; in test [20], 855000 M⁻¹ s⁻¹; in [21] it was 1.09e+06 M⁻¹ s⁻¹. In test [19], the binding result is “no binding”.

B10: NRCoV2-04 VHH-Fc (Fc fusion)
chain: AVQLVDSGGGLVQPGGSLRLSCAASGSPFSNVVMAWYRQAPGKQRERVAFISGGGIADYIMSVKGRFTISRDNAKNTVYLQMNSLKPEDTAVYYCWSSYESTWGQGTQVTVSS
notes: bivalent VHH-Fc
In turn, B10 yielded a concentration for half-maximal inhibition (IC50) in test [1] of 11.7 nM. In [1], this molecule displayed an IC99 of 420 nM. The molecule further registered an Imax % in [1] of 51%. For the same molecule, the Limit of detection in test [2] was determined as 4.12 ng/mL; in test [3] it was 0.46 ng/mL; in test [4], 4.1 ng/mL. Also, the “LVNA IC50” value in test [5] was determined as 1.65 nM. The results for the SC50 in [6], in [7] and in test [8] were 25 ng/mL, 3.3 ng/mL and 39 ng/mL, respectively. Besides, in test [16], the MN100 stood at 1.25 nM.

The values above are taken from patent US20240270826A1 (NATIONAL RESEARCH COUNCIL OF CANADA, published 2024).
